Results from doi:10.1101/2025.10.22.683813 (bioRxiv, 2025).

Molecular target: the molecule itself
Experiment: SEC

B1: NC-4 nucleocapsid subunit (other)
chain: MGNARTRRRERRAEKQAQWKAANAGAGAGAMATPHFDYNASVVSKGLANLSLELRKPVSFDIITADTLEQAIERAGTKHGNKGWEAALSAIEMANLYKSLRGTEHHHHLHGSSIEIYEGKLTAEGLRFGIVASRFNHTLVDRLVEGAIDCIVRHGGRGEDITLVRVPGAWEIPVAADELARKEDIDAVIAFGDLIRG
B1: binds.
